This is an account of results in article PMC8192788, “Macropinocytosis requires Gal-3 in a subset of patient-derived glioblastoma stem cells” (Communications Biology, 2021).

The experiment has as its target T1, purified human Gal-3 (Biolegend) (human, UniProt P17931 1-250).
T1 construct: purified human Galectin-3 bought from Biolegend; No catalogue number printed; source: bought: Biolegend
Nature of the experiment: cell-free binding assay (coated plate, antibody detection by fluorescence); 96-well plates coated with purified human Gal-3 (0.5 µg in 100 µl, 4 °C overnight), blocked with 50 mg/mL BSA; recombinant human RAB10 0.25 to 0.5 µg/well, 4 h at 30 °C; bound RAB10 detected with rabbit anti-RAB10 and AF488 secondary antibody. As to conditions: both partners purified.

T1 sequence (P17931 whole entry): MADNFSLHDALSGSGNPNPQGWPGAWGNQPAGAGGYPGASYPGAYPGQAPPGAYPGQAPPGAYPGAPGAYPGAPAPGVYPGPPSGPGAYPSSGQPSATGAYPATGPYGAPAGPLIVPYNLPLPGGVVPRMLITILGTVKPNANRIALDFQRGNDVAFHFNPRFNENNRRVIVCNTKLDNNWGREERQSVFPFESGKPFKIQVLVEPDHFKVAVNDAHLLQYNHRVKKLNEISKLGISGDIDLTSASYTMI

B1: recombinant human RAB10 (Prospec PRO-1361) (natural protein, UniProt P61026 1-200, looked up)
chain: MAKKTYDLLFKLLLIGDSGVGKTCVLFRFSDDAFNTTFISTIGIDFKIKTVELQGKKIKLQIWDTAGQERFHTITTSYYRGAMGIMLVYDITNGKSFENISKWLRNIDEHANEDVERMLLGNKCDMDDKRVVPKGKGEQIAREHGIRFFETSAKANINIEKAFLTLAEDILRKTPVKEPNSENVDISSGGGVTGWKSKCC
notes: recombinant human RAB10 bought from Prospec; The vendor's data sheet for PRO-1361 should give limits and any His tag; source: bought: Prospec
Consider B1, for which the binding result was “binds”.
